Four molecules from paper PMC2685691 (The Journal of Biological Chemistry, 2009) can be followed below.

“And” between values parts separate entries of the source, which are not always exact repeats. Identical values can stand only once.

Some targets named below: talin F3 Y377A (mouse) (UniProt P26039); talin F3 K324D (mouse) (UniProt P26039); β3-integrin tail (UniProt P05106); talin 1655–1822 Q1764A (mouse, UniProt P26039 1655-1822, Q1764A); talin 1655–1822 S1684D (mouse, UniProt P26039 1655-1822, S1684D); talin 1655–1822 T1767A (mouse, UniProt P26039 1655-1822, T1767A); talin 1655–1822 Y1777A (mouse, UniProt P26039 1655-1822, Y1777A).

Holding throughout (assay): NMR titration
Assay [1] has as its target talin 1655–1822 rod domain (mouse, UniProt P26039 1655-1822).
Assay [2] concerns the target U-15N-labeled talin F3 (309–405) (mouse, UniProt P26039 309-405).

talin 1655–1822 rod domain (mouse, UniProt P26039 1655-1822), sequence (P26039 1655-1822): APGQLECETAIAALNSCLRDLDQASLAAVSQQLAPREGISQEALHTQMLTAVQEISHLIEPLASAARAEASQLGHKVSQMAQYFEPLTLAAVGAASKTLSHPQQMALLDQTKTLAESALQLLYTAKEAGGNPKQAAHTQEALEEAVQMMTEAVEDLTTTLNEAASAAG
talin 1655–1822 Q1764A, sequence (P26039 1655-1822 Q1764A): as the sequence (P26039 1655-1822) above, with Q110A counted along it
talin 1655–1822 S1684D, sequence (P26039 1655-1822 S1684D): as the sequence (P26039 1655-1822) above, with S30D counted along it
U-15N-labeled talin F3 (309–405), sequence (P26039 309-405): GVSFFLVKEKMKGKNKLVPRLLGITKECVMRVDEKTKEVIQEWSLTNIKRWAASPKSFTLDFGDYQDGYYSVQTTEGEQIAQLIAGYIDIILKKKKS
talin 1655–1822 T1767A, sequence (P26039 1655-1822 T1767A): as the sequence (P26039 1655-1822) above, with T113A counted along it
talin 1655–1822 Y1777A, sequence (P26039 1655-1822 Y1777A): as the sequence (P26039 1655-1822) above, with Y123A counted along it

Turning to “talin 1655–1822 rod domain (from UniProt P26039 1655-1822) (domain or fragment)”, in the assay with talin F3 Y377A (mouse), the fold decrease in binding affinity against wild-type F3 came out at 5 fold. The fold decrease in affinity against wild-type F3 in the assay with talin F3 K324D (mouse) was found to be 23 fold.

In the assay with β3-integrin tail, “M319A F3 mutant (from UniProt P26039 309-405) (domain or fragment)” showed a Kd of 225 µM.

B1: talin F3 FERM subdomain (residues 309–400) (domain or fragment)
chain: GVSFFLVKEKMKGKNKLVPRLLGITKECVMRVDEKTKEVIQEWSLTNIKRWAASPKSFTLDFGDYQDGYYSVQTTEGEQIAQLIAGYIDIIL
Take B1: the binding result with talin 1655–1822 Q1764A, with talin 1655–1822 S1684D, in the assay with talin 1655–1822 T1767A and with talin 1655–1822 Y1777A was “binds” throughout. For the same molecule, the Kd in [1] is 11 µM and 9 µM.

Turning to KLLITIHDRKEFAKFEEERARAKWDTANNPLYKEATSTFTNITYRGT (domain or fragment) [β3-integrin tail], the Kd in assay [2] is 273 ± 6 µM.

As usually defined, the Kd is the concentration at which binding is half-saturated. Read a low Kd as tighter binding.
